Experimental findings from patent publication US20190359683A1 are described below.

The test deals with recombinant human cardiotrophin-like cytokine factor 1 (CLCF1) (human) (UniProt Q9UBD9). As to the kind of experiment: yeast display binding.
recombinant human cardiotrophin-like cytokine factor 1 (CLCF1) (human), sequence (Q9UBD9 28-225): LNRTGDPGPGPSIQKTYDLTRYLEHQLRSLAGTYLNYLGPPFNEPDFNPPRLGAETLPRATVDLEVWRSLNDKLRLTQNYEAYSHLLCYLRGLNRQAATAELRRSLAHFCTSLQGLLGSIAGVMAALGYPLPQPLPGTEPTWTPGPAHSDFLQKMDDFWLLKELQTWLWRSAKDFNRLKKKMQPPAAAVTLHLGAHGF

Turning to “yeast-displayed eCNTFR (variant 4 with Y177H and K178N) (from UniProt P26992 20-342)”, the Kd came out at 0.014 nM.

As a reminder, the Kd is the free concentration of one partner at which half of the binding sites on the other are occupied at equilibrium, for simple one-to-one binding.
